This experiment concerns the target 60S ribosomal subunit-nascent chain complex made from F-VHP-β RNCs (not stated | rabbit (endogenous in reticulocyte lysate, RRL)) (UniProt G1TSG1).

In the case of “FLAG-tagged human Listerin (from UniProt O94822 1-1766) (enzyme)”, the ubiquitination of 60S versus 80S nascent chain complexes, separated on a sucrose gradient and given purified Listerin, E1, E2, ubiquitin and ATP (Figure S4E) amounted to 10 fold.
